Test: label from the status in PepcDB records

Sequence	protein production
SSETPAQCSIKQERISYTPPESPVPSYASSTPLHVPVPRALRMEEDSIRLPAHLRLQPIYWSRDDVAQWLKWAENEFSLRPIDSNTFEMNGKALLLLTKEDFRYRSPHSGDVLYELLQHILKQRKPRILFSPFFHPGNSIHTQPEVILHQNHEEDNCVQRTPRPSVDNVHHNPPTIELLHRSRSPITTNHRPSPDPEQRPLRSPLDNMIRRLSPAERAQGPRPHQENNHQESYPLSVSPMENNHCPASSESHPKPSSPRQESTRVIQLMPSPIMHPLILNPRHSVDFKQSRLSEDGLHREGKPINLSHREDLAYMNHIMVSVSPPEEHAMPIGRIADCRLLWDYVYQLLSDSRYENFIRWEDKESKIFRIVDPNGLARLWGNHKNRTNMTYEKMSRALRHYYKLNIIRKEPGQRLLFRFMKTPDEIMSGRTDRLEHLESQELDEQIYQEDEC	not failed
MKPFMNNTKQLKRPLLNKQELALFAATILWGITFLVIHIAVRYSGPLFFVGFRFMVASLICGAIFWRSLKGITVYEIFAGMAIGLGMFLGYALQATGLQTIISSQSAFITALYVPIVPILQWIVFKKPPRLACWLGIIFAFIGLILISGKKSGSFDFSKGEILTLLGALAIAGEVILIGIFAHKVDSRRVTIIQLFFSGLFSFFCMPFIGESIPPFSWVWLNIGIGLALMSAIIQLAMNWAQKSISPTRATLIYAGEPVWAGIVGRLAGEHLSPLALLGGALILIGIVVAELQPSQWRKKKNNLKK	failed
MWWGVAAALLANVLYSTGFVLEKRALASLPEVDIRRPARLLRLVLGSPLWIGGSLSLAAGFGAQLAVYRTLPIAAAQGIFVSGLVLLVLLSARLLGEETTGRERYALGAILAALLMVVLSLREGSDKVSRSAPVPLILLVCVPSLAMGVWLYGSAERRARHRHRMPTTGVEYGVAVGLLYGVSSLAIKGVSSYLTPADGLGGAVVGLLRSPYPYLLLFTGVFGLVMSQAALQRCRASLIVPVCTTVTCLFTAVLGTLAFGEALPHEPLRLALRLAGTALAVSVLLAMPKHDTAPQPSAAPKELTPP	failed
MTHCADNGAPLAARQSAARARMSLPVDSPDAATAADSLPPAPAPRPRAPASLVVLATLAVGYTLWAAQTIILPIMLAAFFALIGNPILRGLRKLYIPRFLGALLILCLGLAGTVTLAAQLAGPAAEWVQQAPRQMRQIARDVRDLTKPVMQANQAAENFARAAGGEGQRGVQIVRTQMDDPYKALVRTPKLAASVLAVVLLTFFFMVYGESLQRHAIALLPNRQQQRFTTEIMLDIEREVSRYVLTISVINTLVGLVFAGILYVLQIPLPEAILWGTVVALLNFAPYVGPLIGVMLMLLMGFVEFRTTLSSLLPAILYLALHTIEGQVVTPIVLGRRMAISPLMLILALMLFGWLWGMVGLLLAVPLLVCIKMVLSRVDGMQRWARLLE	failed
MKKPVLETWLERGLFASRWLMAPFYVGLVVALAALMVVFFQELFQELPRVPSMTPESAILMALTLIDLSLAANLMVIVILSGYENFVSKIDTASHEDRPEWMGTVDFSGLKMKLIASIVAISAIALLKAFLKLTEPGQTVDQVRLFWLVMVHLSFVVSGVLLAVMDWLNAKVAKS	failed
MSHHVQREIRYNFEFDHRIRACFIGAGGHAYRNVYPALRYAPVELSGICDLDIGRAEKFAKLFGAGKAYTDHREMLEQEKPELVFLVTAYHPDGRVQATDLALDALASGAHVWMEKPTAASLEDIERLQAASAAAGRMVMTGLKKTFFPTIEKLRDLIGSPGFGRLTSINVRYPQSLPGQEDRADLVKMQSFLDHIYHPGAILHFLGGEIERAGYEWEALTGATITSLRFHSGAIGTLHLAAGQSGSSIFERVEIIGEGANAIVENGSRLTYFRKADLPSYGRAASFIQPDENAALFYEPEHSLGQLYNNNLFYLGYVPEILHLTDAILSGTPISRGTLEIAREIMKLFEFYRRTDAGVTTNL	failed
MGDSAPARIDTLEIKLLFAGDIMTHGPQIESAKCEGGRVYDFSSSFDTLASRIGAADLAIGNLETTFAGAPYSGYPTFSSPDAMGEALKNAGFDVLTTANNHTADKGKKGIIRTLDMLDSLGIAHTGSYRDIFDRDKMTPLILEVKGVRIAILAYTYGTNGMPVPAPTWVDPIDTVMIKKDLLRADSLGADYRIVQIHWGIEYRKEPDSEQLELARKLHRYGADAIIGSHPHVVQGSQWLKSDSKTSFVIYSMGNFISNQRKPAATRGGMLLSLTLRKVGDRITTHPDYQYVFVNKRTPQGKRVYRLLPVDPFSSDTLPSLPPEEQRDYKEFAKYYQMIPLVLIEREDNRIRNRLQVSQRAFLEHHHHHH	failed
MIKVRVASRARAAEGIAQLDLVCAEGRDLPAFEAGAHIDLFLGNGLTRQYSLCSDPAERSFYRIAVLRELTSRGGSAYVHEALTEGATLEISPPRNLFALDETAEEHLLFAGGVGVTPILAMAKRLSALGRAFTFHYCARDRSRAAFLNELSTAPFTSAVRLSFDAEPDTRLDLDVALARPKPGRRLYVCGPGGFMTHVIDGALARGWSGDQIRKEHFAAAPLSAGQDQPFELVIASSGQIVTVAADQTAAQALEAAGVFVPVSCEQGVCGTCLTRVIDGQPDHRDAFQTDEERAANDQFTPCCSRARSPRLVLDL	failed
MKILSVSYIYLLMGISSYSYANFDLGINEFNAPNELTELSELNTSNDNNAIIELINSTNSQVTIIQHNVNKTGSNKAKVKQTGYDNTAAVMQLGSNNVGLIAQNGTNNLATLKQLGFNHEGAILQEGNDNIAHLVQTGNGKQNVVNQTGDSNIAAAVNKNNGAGFSINQTGNQGIILVNGMDRFISIVN	failed
MNVLALDTSQRIRIGLRKGEDLFEISYTGEKKHAEILPVVVKKLLDELDLKVKDLDVVGVGIGPGGLTGLRVGIATVVGLVSPYDIPVAPLNSFEMTAKSCPADGVVLVARRARKGYHYCAVYLKDKGLNPLKEPSVVSDEELEEITKEFSPKIVLKDDLLISPAVLVEESERLFREKKTIHYYEIEPLYLQKSIAELNWEKKKRG	not failed
MQFLAPIISIVVGFLSFVLVLRTWMQFCQVSAYLPLSQSLLRLTAPMVNPVSKFIPTVKNINFAALLIALALLAVEKGVLGLPLTMAVLVGLLGIIKMFGQILFFTTLIRALMSWVTRGDHPLDEVIAQITEPVLGIIRKILPRTGMLDFSVMVLGFGLLLLNNLFYSVFGAFWAVA	failed
MAANSNSRVASNHTSKKQKVRRNIHPFTNNTRIKRASKIVKFNDSGEGDHVSDQRSNKENVLTYKSLKSRASDLLKMRETLPVYQHKREIMSYIESNPVTVLIGETGSGKSTQIPQFVLEKLYDTKKHGSIAVTQPRRVAAINLATRVAQEHGCKLGEQVGYSVRFDNTTTTRTRLKYLTDGMLLRELMMNSDLREYSVIVIDEAHERTVLTDLILGFLKSLIQGPRPDLRIIVMSATLQAEKFSEFFNNAPILFVEGRKFDVKQYYLKAPTDDIVDAVIRCCIQINQGEELGDILCFLPGQEEIDKAVTIMEKIAKYVSDEAPVPLIVPYPLYAALPAVQQSLVFAPIKGFKRKVVFSTNIAETSVTISGVKFVVDSGLRKVKVWRHQLGLATLLTVPISQASAMQRSGRAGRESEGKSFRLYCESDYVKLPKQSEPEIARSDVTSPVLMLKRYGVDDLLNWTWFENPGKEAIVMGLQELYELGALDTRGKITKRGQQMALLPLQPHLSSVLIKASEVGCLSQVIDIVSCLSVENLLLNPSPEERDEVNERRLSLCNAGKRYGDLIMLKELFDIYFYELGKSQDASSERNDWCKGLCISIRGFKNVIRVRDQLRVYCKRLFSSISEEDEESKKIGEDGELISKILKCFLTGFIKNTAIGMPDRSYRTVSTGEPISIHPSSMLFMNKSCPGIMYTEYVFTTKGYARNVSRIELSWLQEVVTNAAAVAKQKVSDSK	failed
MTMEPRVLRREEWDSWYGSLIRAFGGVPEPAEELELFRELTRVDRSIGVWERDGEAEACVGTTGSFDFRMTVPGGAQVRAAGVTMVSVAATHRRRGVLTSMMRRQLDDVRAWGEPLAVLTASEPAIYGRFGYGAATFSLSAEIDTSRVRLSVPAGTDDVRLRYAAPADVLDACEAVYARLVPGRPGMLARRPGWERLALLDPESGRDGASPLQCVVARRGGEVTGFARFRVRPAWGPEGAGGTVVLDDLAGLDPATEAALWRFLYDVDLTSRLAVRGRPVDEAWQYQVSDIRRCRPESRDALYVRLVDVGAALAARTYQAPVDVVFEVEDAFCPWNAGRWRLSGDAKGASCERTSDGADLALSVRELGAAYLGGVRLSSLGAAGRVREVRAGALAEASVGFGSDVAPWLPHGF	failed
MGQMFGVACIDEQSGIVGQAWNNNSVRYISIDEDAVITIQSGPVVGKVAVSNDKTLAYGATINGANTVYVYKKSQAWVPSRLSDISSGTDVWAVALNGDNQWLYYVTANGRLGRIEVDNPTHNEILFEHNDFSGGPFAYIAYSAFEDCFYVTTDKNKILKVWVKEDGTHAYEQINQNNTGTTDGFLADEAKFQYLRGLTIDEDGNIFVCQGDNSHVIRKIAYDENMEKRYVTTVLGTSTVHGTDDGSPDIALFNGPQDISYDGNGGYWIAMRYEPALRKYSIELEHHHHHH	failed
MNPAITPILLGLVAGITVTFGALTYIVVGRRLGRRGQGVLNALAGGVLAYLALETGHESAAYVEQFATRETLDSFLAGLMVTSIALLGTWLLLSYVERGYSTLVRAPPGLMVSLTVASALGLHNLGEGLAIAASLIEGKVSLAILFAVGFAIHNYTEGFPIAAPLAGEKKRTGLRTIIGLSLLAGLPVVPGAMVYYLGSNLPGLAIATLYTVAAASIVYAMLHINLSALSRLGGLSSPSFWSSLFLGIALAYVTESIILIAGLH	failed
MKCKRLNEVIELLQPAWQKEPDFNLLQFLQKLAKESGFDGELADLTDDILIYHLKMRDSAKDAVIPGLQKDYEEDFKTALLRARGVIKELEHHHHHH	not failed
MTTSIQRRISIVIPCLNDAVLLEQCLSSIVAQTLQPEEVIVVDNGSTDNSVEVANRMGARVVHEPLQGITWASAAGYNSARGDLIVRFDADCVIPPDHLSQVNAIWNRTEETPGRTIVALTGTGSFDIPGRMGEWLALCYLGAYRWSTKQALGHYPIFGSNSVISRQWWEDVKDQITLSETFVHEDMYFSFFVRPHETVWFEKNLKLIMHPRALMGVRQSFIRLVRGFYTIKIAWKREPVHQRLESRRDWTLEHHHHHH	failed
IKMAKDYGFCFGVKRAIQIAEKNQNSLIFGSLIHNAKEINRLEKNFNVKIEEDPKKIPKNKSVIIRTHGIPKQDLEYLKNKGVKITDATCPYVIKPQQIVESMSKEGYQIVLFGDINHPEVKGVISYATNQALVVNSLEELQEKKLQRKVALVSQTTKQTPKLLQIASYLVERCTEVRIFNTICNATSYNQKAALDLSKEVDIMIVVGGKTSSNTKQLLSIAKQHCKDSYLVEDENELELAWFKDKKLCGITAGASTPDWIIENVKQKISTI	failed
MTGCFLWQLYLPKLQTGSLKPEVPPAPVKMCPRHPELVPLAHPLPVLKEALEKVDGILRKAMLAPGLAAMSALVIHNDTVLWTGNFGRKNGSDPNSGTPNEYTMYRIASISKIFPVLMLYRLWEEGIVDSLDDPLERYASTFSINNPLGTAQGPGAQGPTGESEEMGSLPRPSPVTLRRMASQLSGLPRRLRGTSLLWRGSTQEALSLLKDDVLVADPGTRCHYSTLAFSLLAHVLAAHRAQGDYERWVSEQVLEPLGMSDTGFALTGTVRARLAAGFYGSGRSAPLYDLGWYRPSGQMYSTAADLARLAAALLGAGPRRLLRPDSLATLLAPLRACAHGYFASETGTPWEFHERRGYRVARKDGDLDGYAASLALVPPLRLGFVLLLAGPRPPTRDLVADALDTLLPALERALREAELAPAPPPRARPFAGFFTFANRTFYEVRAAGPRGELRLRQFGPRVEALVPAAFRSLALRHVRGRVFQLHVAREFPCALPLADAWLSLESQHGQLVRFYPLDRHGLAPGFDSCDSMDGWNTTCSAVHFLEDVWVVYNLQFL	failed

Source: a protein production outcome set (Wang et al. 2014)
